Measurements: the RNAGym collection of RNA variant scans (doi:10.1073/pnas.2313332121)

B1: TPR t1 (parent)
chain: GACCAAUCUGCCCUCAGAGCUCGAGAACAUCUUCGGAUGCAGAGGAGGCAGGCUUCGGUGGCGCGAUAGCGCCAACGUCCUCAACCUCCAAUGCAUCCCACCACAUGAUGAUGCCUGAAGAGCCUUGGUUUUUUG

Variants of: B1
Test: polymerase ribozyme fitness, log enrichment relative to wild type (log ratio); higher = more active; in vitro selection for triplet polymerase activity
In short: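 Mutant libraries of both subunits of a heterodimeric triplet polymerase ribozyme were PCR-built, transcribed, and selected once in triplicate, with frozen incubation at −7 °C and capture of gel-excised extended constructs on streptavidin beads before RT-PCR. Illumina sequencing of input and output libraries was filtered to genotypes with ≥10 input reads and ≥1 read per output. Fitness is the logarithm of genotype enrichment over wild-type enrichment, using inverse-variance-weighted replicate averages. The logarithm is base 2.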

Variant	polymerase ribozyme fitness (log ratio)
C11U U112G	-0.177
C11U G69U	0.459
C11U C22U U55C C56U A66U	-6.04
C11U C28U G45U G61U A84U C101A	-5.59
C11U G122A G128C U131C	-0.489
C11U G51A C56G C124A	-0.733
C11U U116C	-1.29
C11U G93C G122A	-0.0927
C12A A37C G71A A108G U112G	-7.07
C11U G25U	-5.82
C11U G39C U59C U81A A84G	-3.33
C11U C34A G48U U87A	-5.34
C12A A16G U81C G120C	0.152
C11U G45C C88A	-0.484
C11U C62A	-1.39
C11U U32C C97G	-4.82
C11U G47A G61U U78A	-0.709
C11U G60A U106C G128C	-3.82
C11U G135U	-1.81
C11U G135A	-1.27
C11U C28G C85A C104U G113C	-6.42

Variant	polymerase ribozyme fitness (log ratio)
C11U C49G A74U C123G	0.499
C11U C34U C86G C102U A121U	-1.28
C11U C56U A95G	-0.936
C11U C31U	-4.93
C11U U55C G61A A121G	1.39
C11U G47A G48A	-2.36
C11U C40U A121C U129G	0.406
C12A A37C C40U G47A C73A	-4.88
C11U U30A	-4.5
C11U C53U C62U G110A U129A	-4.11
C11U C49A G107U G113C	-6.14
C11U G44C C101A	-2.7
C11U C89U C99U A121U U131A	-1.82
C11U U59G G93C U129C	-1.93
C11U G107A	-6.13
C11U G48U G57U G61C C89U U106A	-3.19
C11U G61C	-1.64
C11U G61U	-0.841
C11U G71U	0.863
C11U C49G G61U A90C	-2.04
C11U C53U G69U A75U A84G	-1.1

Variant	polymerase ribozyme fitness (log ratio)
C11U C49G	-1.44
C11U G61C G120U G122U	-1.06
C11U C49G A95C	-2.54
C11U C40U C101A	-2.4
C12A A27U	-3.57
C11U U87G C102U	-1.67
C11U C85A	-2.42
C12A A16G G36U	-4.37
C11U C123A	0.93
C11U C123G	1.73
C11U C97U G113A	-1.74
C11U G110U	-1.5
C11U G110A	-1.63
C11U G110C	-2.8
C11U G93C U112A G127C U134A	-0.699
C11U C124G	1.46
C11U C124U	1.63
C11U G17A	-3
C11U U106A	-0.58
C11U G71U U132C	-0.794
C11U U132A	-0.17

Variant	polymerase ribozyme fitness (log ratio)
C11U U59A C73A A91G A118U	-2.19
C11U G57A G58U G63U G77U C82G U106A	-3.25
C12A A26C C56U G69A C85A	-7.09
C11U G17C C49A G58C	-6.04
C11U G35U A111U G122C	-6.28
C12A	-0.413
C11U C82U C104A U112A	0.128
C11U C40G G48U G61C C97U G120U	-4.02
C11U G65U C82U C104A U112A	-6.27
C11U C73U	-0.94
C11U C73G	0.0999
C11U G63U A84U C89U	-2.9
C11U G19U U54A A121C G135U	-2.38
C11U C53U C73U C85A A121G C123G U126G U129C U130A	-3.11
C11U C40G C82U A100U	-4.42
C11U G45A G48A A74U	-2.5
C12A A18G C20U A37U A50C C64U U92A	-4.28
C11U G58A U126G	-2.59
C11U C114A C123U	-2.21
C11U C40G C53U C73G C79A C86U	-4.32
